The results in this text go back to the supplement of paper PMC10567573.

Sequences and labels used below:
B1: DYRK1B (parent)
chain: YQGPGTRRLQEVLGVQTGGPGGRR
B2: LMNB1 (parent)
chain: LYKEELEQTYHAKLENARLSSEMN
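Further: lentivirally expressed fusions sorted by FACS into six bins by GFP to DsRed ratio, PSI derived from sequencing read proportions per bin multiplied by bin number.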

In one data set the parent is B1. The experiment in a line: protein stability index of a GFP-peptide fusion (GPS, HEK-293T) (PSI 1-6); higher = more stable. The note with it: c terminus: a fixed tail appended.
Regarding YQGPGTRRLNEVLGVQTGGPGGRR, the protein stability index was determined as 3.85.
Same read-out and setting: to YQGPGTRRLMEVLGVQTGGPGGRR belongs 2.82; to YQGPGTRRLLEVLGVQTGGPGGRR, 2.28; to YQGPGTRRLREVLGVQTGGPGGRR, 2.91.
Take YQGPGTRRLTEVLGVQTGGPGGRR: the protein stability index is 3.39.
Turning to YQGPGTRRLYEVLGVQTGGPGGRR, the protein stability index is 2.25.
Still for that read-out and setting: to YQGPGTRRLSEVLGVQTGGPGGRR belongs 3.57; to YQGPGTRRLFEVLGVQTGGPGGRR, 2.34.
With YQGPGTRRLHEVLGVQTGGPGGRR, the protein stability index was determined as 2.98.
For YQGPGTRRLQEVLGVQGGGPGGRR, the protein stability index was 3.66.
YQGPGTRRLQEVLGVQVGGPGGRR: the protein stability index is 3.62.
Turning to YQGPGTRRLQEVLGVQHGGPGGRR, the protein stability index came to 3.69.
Consider YQGPGTRRLQEVLGVQEGGPGGRR, for which the protein stability index is 3.44.
The same measure, in the same setting: for YQGPGTRRLQEVLGVQYGGPGGRR the value was 3.11.
Still for that read-out and setting: to YQGPGTRRLQEVLGVQNGGPGGRR belongs 3.83; to YQGPGTRRLQEVLGVQDGGPGGRR, 3.45; to YQGPGTRRLQEVLGVQRGGPGGRR, 2.8.
The same measure, in the same setting: to YQGPGTRRLQEVLGVQLGGPGGRR belongs 3.3.
Turning to YQHPGTRRLQEVLGVQTGGPGGRR, the protein stability index stood at 3.81.
On to YQLPGTRRLQEVLGVQTGGPGGRR, for which the protein stability index amounted to 3.23.
Regarding YQYPGTRRLQEVLGVQTGGPGGRR, the protein stability index is 2.48.
Regarding YQWPGTRRLQEVLGVQTGGPGGRR, the protein stability index came to 3.1.
Same read-out and setting: for YQPPGTRRLQEVLGVQTGGPGGRR the value was 3.39.
In the case of YQGPGERRLQEVLGVQTGGPGGRR, the protein stability index came out at 3.47.
Same read-out and setting: to YQGPGPRRLQEVLGVQTGGPGGRR belongs 3.04.
Same read-out and setting: to YQGPGVRRLQEVLGVQTGGPGGRR belongs 3.02; to YQGPGYRRLQEVLGVQTGGPGGRR, 1.77; to YDGPGTRRLQEVLGVQTGGPGGRR, 4.23.
The same measure, in the same setting: for YMGPGTRRLQEVLGVQTGGPGGRR the value was 3.83; for YQGPGTRRLQEVLGVQTGGPGGLR, 3.12; for YQGPGTRRLQEVLGVQTGGPGGMR, 3.27.
For YQGPGTRRLQEVLGVQTGGPGGER, the protein stability index is 3.32.
For YQGPGTRRLQEVLGVQTGGPGGTR, the protein stability index was found to be 3.23.
Still for that read-out and setting: for YQGPGTRRLQEVLGVQTGGPGGNR the value was 3.29; for YQGPGTRRLQEVLGVQTGGPGGWR, 2.22; for YQGPGTRRLQEVLGVQTGGPGGDR, 3.8.
As for YQGPGTRRLQEVLGVQTGGPGGQR, the protein stability index amounted to 3.38.
YQGPGTRRLQEVLGVQTGGPGGIR: the protein stability index came to 2.75.
As for YQGPGTRRLQEVLGYQTGGPGGRR, the protein stability index is 2.92.
Regarding YQGPGTRRLQEVLGSQTGGPGGRR, the protein stability index was 3.59.
Still for that read-out and setting: to YQGPGTRRHQEVLGVQTGGPGGRR belongs 2.81.
Still for that read-out and setting: to YQGPGTRRGQEVLGVQTGGPGGRR belongs 4.47.
For YQGPGTRRVQEVLGVQTGGPGGRR, the protein stability index came out at 3.75.
Consider YQGPGTRREQEVLGVQTGGPGGRR, for which the protein stability index is 3.79.

The variants in a further data set derive from B2. The data set is described as above. The settings on record: c terminus: a fixed tail appended.
For LYKEELEQTYHAKLENARLSSTMN, the protein stability index worked out at 2.35.
As to LYKEELEQTYHAKLENARLSSVMN, the protein stability index came out at 2.42.
Same read-out and setting: to LYKEELEQTYHAKLENARLSSKMN belongs 2.61.
Still for that read-out and setting: to LYKEELEQTYHAKLENARLSSMMN belongs 2.58; to LYKEELEQTYHAKLENARLSSLMN, 2.68; to LYKEELEQTYHAKLENARLSSSMN, 3.44.
On the same count and under the same terms, to LYKEELEQTYHAKLENARLSSPMN belongs 2.4.
For LYKEELEQTYHAKLENARLSSRMN, the protein stability index worked out at 2.88.
LYKEELEQTYHAKLENARLSSWMN: the protein stability index is 1.74.
The same measure, in the same setting: for LYKEELEQTYHAKLENARLSSYMN the value was 2.4; for LYKEELEQTYHAKLENARLSSQMN, 2.73; for LYKEELEQTYHAKLENARLSSNMN, 3.3.
Still for that read-out and setting: for LYKEELEQTYHAKLENARLSSEGN the value was 2.8.
Consider LYKEELEQTYHAKLENARLSSEHN, for which the protein stability index was found to be 2.94.
On the same count and under the same terms, to LYKEELEQTYHAKLENARLSSEQN belongs 3.04; to LYKEELEQTYHAKLENARLSSEAN, 3.24; to LYKEELEQTYHAKLENARLSSECN, 2.76.
Same read-out and setting: to LYKEELEQTYHAKLENARLSSERN belongs 3.21.
Still for that read-out and setting: for LYKEELEQTYHAKLENARLSSESN the value was 2.87; for LYKEELEQTYHAKLENARLSSEEN, 2.89.
On to LYKEELEQTYHAKLENARLSSEVN, for which the protein stability index worked out at 2.46.
Take LYKEELEQTYHAKLENARLSSEKN: the protein stability index was determined as 3.28.
For LYKEELEQTYHAKLENARLSSEIN, the protein stability index is 2.6.
As for LYKEELEQTYHAKLENARLSSEYN, the protein stability index is 1.6.
Same read-out and setting: to LYKEELEQTYHAKLENARLSSEDN belongs 2.82; to LYKEELEQTYHAKLENARLSSENN, 2.95; to LYKEELEQTYHAKLENARLSSETN, 2.52.
Still for that read-out and setting: to LYKEELEQTYHAKLENARLSSEWN belongs 2.58; to LYKEELEQTYHAKLENARLSSELN, 2.19; to LYKEELEQTYHAKLENARLSSEPN, 2.67.
Consider LYKEELEQTYHAKLENARLSSEFN, for which the protein stability index turned out to be 2.42.
Same read-out and setting: for LYKEELEQTYHAKLENARLSSEMQ the value was 3.04; for LYKEELEQTYHAKLENARLSSEMK, 2.33; for LYKEELEQTYHAKLENARLSSEME, 3.25.
Consider LYKEELEQTYHAKLENARLSSEMC, for which the protein stability index was 2.33.
For the variant LYKEELEQTYHAKLENARLSSEMA, the protein stability index was 2.43.
On the same count and under the same terms, for LYKEELEQTYHAKLENARLSSEMT the value was 2.46.
The same measure, in the same setting: for LYKEELEQTYHAKLENARLSSEMY the value was 2.27; for LYKEELEQTYHAKLENARLSSEMS, 2.64.
Same read-out and setting: to LYKEELEQTYHAKLENARLSSEMW belongs 1.79; to LYKEELEQTYHAKLENARLSSEMF, 1.88.
Regarding LYKEELEQTYHAKLENARLSSEMM, the protein stability index was found to be 2.6.
For the variant LYKEELEQTYHAKLENARLSSEMV, the protein stability index was determined as 2.26.
LYKEELEQTYHAKLENARLSSEMP: the protein stability index worked out at 2.17.
On the same count and under the same terms, for LYKEELEQTYHAKLENARLSSEMD the value was 3.25.
For the variant LYKEELEQTYHAKLENARLSSEML, the protein stability index came out at 2.51.
Regarding LYKEELEQTYHAKLENARLSSEMG, the protein stability index came to 3.47.
The same measure, in the same setting: to LYKEELEQTYHAKLENARLSSEMH belongs 3.28.
Same read-out and setting: to LYKEELEQTYHAKLENARLSSEMI belongs 2.48; to LYKEELEQTYHAKLENARLSSEMR, 3.11.
